The record followed here is article PMC4682817, “The Cardiac Stress Response Factor Ms1 Can Bind to DNA and Has a Function in the Nucleus”.

Series [1] deals with T1, Ms1 270-375 (AT-hook + ABD2) (rat, UniProt Q8K4K7 270-375).
T1 sequence: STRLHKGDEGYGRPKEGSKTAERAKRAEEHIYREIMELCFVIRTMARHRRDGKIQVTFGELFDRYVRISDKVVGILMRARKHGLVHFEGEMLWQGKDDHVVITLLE
Put plainly: fluorescence titration (intrinsic Trp). The settings on record: EMSA buffer: 20 mM phosphate, 100 mM NaCl, 0.01% Triton X-100, pH 7.5, room temperature; fluorescence and NMR buffers not given in the material.

In series [2] the target is T1, Ms1 270-375 (AT-hook + ABD2). Description: fluorescence titration (intrinsic Trp); EMSA buffer: 20 mM phosphate, 100 mM NaCl, 0.01% Triton X-100, pH 7.5, room temperature; fluorescence and NMR buffers not given in the material. The conditions noted are these: protein: recombinant; tags: N-terminal TEV-cleavable poly-His (pLEICS-07). On the technique in general: Mobility shift assays separate free from complexed probe on a gel.

Series [3] has the same target. Put plainly: NMR titration; shifts in AT-hook only; 1:0.5 to 1:2; EMSA buffer: 20 mM phosphate, 100 mM NaCl, 0.01% Triton X-100, pH 7.5, room temperature; fluorescence and NMR buffers not given in the material. The conditions noted are these: protein: recombinant; tags: N-terminal TEV-cleavable poly-His (pLEICS-07); self-complementary.

Turning to scrambled oligo, the dissociation constant (Kd) (in general, the free concentration of one partner at which half of the binding sites on the other are occupied at equilibrium, for simple one-to-one binding) in series [1] is 31 µM.

B1: A7G oligo (dsDNA)
DNA 1: GACACAGACACAATAG
DNA 2: CTATTGTGTCTGTGTC
Take B1: the dissociation constant Kd in series [2] worked out at 32 ± 5 µM.

B2: AT-hook oligo (dsDNA)
DNA 1: CGAATTAATTCG
DNA 2: CGAATTAATTCG
Consider B2, for which the binding result in series [3] is recorded as “binds”.

B3: wt oligo (dsDNA)
DNA 1: GACACAAACACAATAG
DNA 2: CTATTGTGTTTGTGTC
Take B3: the Kd in series [2] is 8.2 ± 1 µM.
